Data: patent US12459997B2, “Compounds and methods targeting interleukin-19” (Eli Lilly and Company, priority 2018, dated 2025)
Where a chain is given by its changes, count along the chain named.

Experiments:
[1] = target: T1, human IL-19 / human IL-20R beta Fc-fusion protein (Homo sapiens, UniProt Q9UHD0); assay: BLI in vitro neutralization: IL-19 captured by antibody, then incubated with IL-20R beta Fc; conditions: block of IL-19 binding to soluble receptor
T1 sequence (Q9UHD0 25-177): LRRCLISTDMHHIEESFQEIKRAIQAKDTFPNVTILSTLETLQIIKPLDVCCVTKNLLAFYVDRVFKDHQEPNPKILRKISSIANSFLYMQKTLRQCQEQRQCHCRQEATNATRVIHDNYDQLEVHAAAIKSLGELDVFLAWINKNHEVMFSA
From the text: Alternatively, a biophysical assay such as bio-layer interferometry (BLI) may be used for assessing neutralization of IL-19 by antibodies of the present invention. Binding between a ligand immobilized on the biosensor tip surface and an analyte in solution produces an increase in optical thickness at the biosensor tip, which results in a wavelength shift (expressed in nm). According to such assay, the IL-19 receptor (i.e., […]) is expressed in a membrane-free manner (such as with an Fc-fusion e.g. IL20Rbeta Fc chimera protein from R&D Systems catalog 1788-IR-050). […] The immobilized antibodies are then incubated with recombinant human IL-19 protein diluted to 100 nM using HBS-EP+ running buffer (GE Healthcare, 10 mM Hepes pH7.4+150 mM NaCl+3 mM EDTA+0.05% surfactant P20) for 240-300 secs. The human IL-19, after binding to the anti-IL-19 antibody, is assessed by incubation with human IL-20R beta Fc-fusion protein for 240-300 secs. The ability of the antibody to block or neutralize binding of the IL-19 ligand to the soluble receptor is observed as a minimal (<0.025 nm) increase in the wavelength during this step of the assay.

recombinant human IL-19 [2] = target: T2, recombinant human IL-19 (Homo sapiens, UniProt Q9UHD0); assay: PathHunter eXpress IL20RA/IL20RB dimerization assay (cell-based neutralization); parameters: host or cells: PathHunter eXpress IL20RA/IL20RB cells (DiscoverX 93-1027E3) carry the receptor partners; conditions: eight experiments
T2 sequence (Q9UHD0 25-177): T1 sequence (Q9UHD0 25-177)
From the text: PathHunter® eXpress IL20RA/IL20RB dimerization assay (DiscoverX product code 93-1027E3) is used to assess ability of exemplified antibodies to prevent binding of human IL-19 recombinant protein in a cell-based assay format. The assay detects ligand induced dimerization of two subunits of a receptor-dimer pair. The cells have been engineered to co-express one receptor subunit fused to enzyme donor and a second dimer partner fused to enzyme acceptor. Binding of an agonist to one receptor subunit induces it to interact with its dimer partner, forcing complementation of the two enzyme fragments resulting in the formation of a functional enzyme that hydrolizes a substrate to generate a chemiluminescent signal. […] Human IL-19 recombinant protein with and without exemplified antibodies mixture is then incubated with cells overnight at 37° C./5% CO2. Substrate buffer is added to cells and incubated at room temperature for 1 hour in the dark before luminescent detection.

recombinant human IL-19 [3] = target: T2, recombinant human IL-19; assay: Bio-layer interferometry (BLI) binding kinetics and affinity (Octet Red96); conditions: 25° C.; 1:1 binding model
Description: Bio-layer interferometry (BLI) assay, measured with a Octet Red96® instrument available from ForteBio (using HBS-EP+ running buffer (GE Healthcare, 10 mM Hepes pH7.4+150 mM NaCl+3 mM EDTA+0.05% surfactant P20) at 25° C.), is used to measure binding of the exemplified IL-19 antibodies of the present invention to recombinant human IL-19 (having the amino acid sequence set for in SEQ ID NO: 1).
Except as noted, all reagents and materials are from ForteBio (Freemont, Calif.). An AMQ biosensor is used to immobilize antibody of interest for analysis. […] Recombinant human IL-19 is prepared to concentrations of 270, 90, 30, 10, 3.33, 1.11, 0.370, and 0 (blank) nM by dilution into running buffer. Each analysis consists of: (1) capturing antibody samples on biosensors for 300 secs; (2) establishing a baseline by incubating antibody loaded biosensors with running buffer for 60 secs; (3) incubating antibody loaded biosensors with serially diluted recombinant human IL-19 for 300 secs to monitor association phase; (4) return of biosensor to running buffer to monitor dissociation phase.
Binding data is processed using standard double-referencing and fit to a 1:1 binding model using Data Analysis v9.0 evaluation software, to determine the association rate (kon, M^−1 s^−1 units), dissociation rate (koff, s^−1 units), and Rmax (nm units). The equilibrium dissociation constant (KD) was calculated from the relationship KD=koff/kon, and is in molar units.

recombinant human IL-19 [4] = target: T2, recombinant human IL-19; assay: Binning by cross-competition binding assay (Octet Red96)
From the text: Binning experiments involve competing monoclonal antibodies against one another in a pairwise and combinatorial fashion for binding to a specific antigen. A “bin” is a relative concept, based upon the epitope regions represented within the panel of monoclonal antibodies being tested. Two antibodies belong to the same bin if they cannot pair with one another and share the same blocking profile when tested against the other antibodies (or bins of antibodies) in the test panel. Binning of exemplified antibodies of the present invention may be performed by cross-competition binding assays using the Octet Red96®, available from ForteBio, according to manufacturer instruction. Briefly, to determine if two antibodies share overlapping epitope regions, an exemplified antibody is labeled with biotin and captured onto streptavidin sensor tip. The coated biosensor up is then incubated with recombinant human IL-19 to saturate the capture antibody binding sites. The capture antibody-antigen complex is then incubated with a detection antibody. […] Antibodies with a same binding profile are grouped together into the same bin.

B1: M_3: murine-derived IL-19 antibody; LC SEQ ID NO: 18, HC SEQ ID NO: 22 (antibody)
heavy: QIQLVQSGPELKKPGETVKISCKASGYTFTTYGMSWVKQAPGKGLKWMVWINTYSGVPTYVDDFKGRFAFSLETSASTAYLQINNLKNEDTATYFCARRDEGFAYWGQGTLVTVSAAKTTPPSVYPLAPGSAAQTNSMVTLGCLVKGYFPEPVTVTWNSGSLSSGVHTFPAVLQSDLYTLSSSVTVPSSTWPSETVTCNVAHPASSTKVDKKIVPRDCGCKPCICTVPEVSSVFIFPPKPKDVLTITLTPKVTCVVVDISKDDPEVQFSWFVDDVEVHTAQTQPREEQFNSTFRSVSELPIMHQDWLNGKEFKCRVNSAAFPAPIEKTISKTKGRPKAPQVYTIPPPKEQMAKDKVSLTCMITDFFPEDITVEWQWNGQPAENYKNTQPIMDTDGSYFVYSKLNVQKSNWEAGNTFTCSVLHEGLHNHHTEKSLSHSPGK
light: DIKMTQSPSSMYASLGERVTITCKASQDINSYLSWFQQKPGKSPKTLIYRANRLVDGVPSRFSGSGSGQDYSLTISSLEYEDMGIYFCLQYDDFPYTFGGGTKLEIKRADAAPTVSIFPPSSEQLTSGGASVVCFLNNFYPKDINVKWKIDGSERQNGVLNSWTDQDSKDSTYSMSSTLTLTKDEYERHNSYTCEATHKTSTSPIVKSFNRNEC
**Q.** How did the Neutralization [1] turn out when B1 was run?
**A.** No

B2: M_5: murine-derived IL-19 antibody; LC SEQ ID NO: 312, HC SEQ ID NO: 313 (antibody)
heavy: EVQLQQSGPVLVKPGASVKMSCKASGYPFNDYFLGWVKQSHGKSLEWIGSINPDNDYTMSNQKFKGKATLTVDKSSSTAYMELNSLTSEDSAVYYCARYDYDWAWFAHWGQGTLVTVSAAKTTPPSVYPLAPGSAAQTNSMVTLGCLVKGYFPEPVTVTWNSGSLSSGVHTFPAVLQSDLYTLSSSVTVPSSTWPSETVTCNVAHPASSTKVDKKIVPRDCGCKPCICTVPEVSSVFIFPPKPKDVLTITLTPKVTCVVVDISKDDPEVQFSWFVDDVEVHTAQTQPREEQFNSTFRSVSELPIMHQDWLNGKEFKCRVNSAAFPAPIEKTISKTKGRPKAPQVYTIPPPKEQMAKDKVSLTCMITDFFPEDITVEWQWNGQPAENYKNTQPIMDTDGSYFVYSKLNVQKSNWEAGNTFTCSVLHEGLHNHHTEKSLSHSPGK
light: DIVMTQSPSSLAMSVGQKVTMSCKSSQSLLSSYNQKNYLAWYQRKPGQSPKLLVYFASQRATGVPDRFIGSGSGSDFTLTISSVQAEDLADYFCQQHTRLPITFGAGTKLELKRADAAPTVSIFPPSSEQLTSGGASVVCFLNNFYPKDINVKWKIDGSERQNGVLNSWTDQDSKDSTYSMSSTLTLTKDEYERHNSYTCEATHKTSTSPIVKSFNRNEC
**Q.** Which results are given for B2?
**A.** % inhibition +/− SEM (maximum signal inhibition percentage) (recombinant human IL-19 [2]): 105.03 +/− 1.38%; Neutralization [1]: Yes (minimal (<0.025 nm) increase in the wavelength)

B3: M_1: murine-derived IL-19 antibody; LC SEQ ID NO: 2, HC SEQ ID NO: 6 (antibody)
heavy: EVQLQQSGPVLVKPGASVKMSCKASGYKFTDYFVGWVKQSHGKSLEWIGYVDPENGYTRCNQKFKGKATLTVDKSSSTAYMELNSLTSEDSAVYYCARYDYDWAWFTNWGQGTLVTVSAAKTTPPSVYPLAPGSAAQTNSMVTLGCLVKGYFPEPVTVTWNSGSLSSGVHTFPAVLQSDLYTLSSSVTVPSSTWPSETVTCNVAHPASSTKVDKKIVPRDCGCKPCICTVPEVSSVFIFPPKPKDVLTITLTPKVTCVVVDISKDDPEVQFSWFVDDVEVHTAQTQPREEQFNSTFRSVSELPIMHQDWLNGKEFKCRVNSAAFPAPIEKTISKTKGRPKAPQVYTIPPPKEQMAKDKVSLTCMITDFFPEDITVEWQWNGQPAENYKNTQPIMDTDGSYFVYSKLNVQKSNWEAGNTFTCSVLHEGLHNHHTEKSLSHSPGK
light: B2 light with R44Q, Q59T, A61P, T62P, T98E
**Q.** What does the source list for B3?
**A.** % inhibition +/− SEM (maximum signal inhibition percentage) (recombinant human IL-19 [2]): 98.59 +/− 0.42%; Neutralization [1]: Yes (minimal (<0.025 nm) increase in the wavelength)

B4: R_3: rabbit-derived IL-19 antibody; LCVR SEQ ID NO: 50, HCVR SEQ ID NO: 54 (antibody, V domains shown)
VH: QCQSLEESGGGLVEPEGSLTLTCKASGFSFSSSYWICWVRQAPGKGLEWIACTDTFSGDTYYASWAKGRFTISKTSSTTVTLRMTSLTDADTATYFCARDIFGTAVHISLWGPGTLVTVSS
VL: ADVVMTQTPSSVEAAVGGTVTIKCQASQSIGSSLAWYQQKPGQRPKLLIYGASTLASGVPSRFKGSGSGTEFTLTISDLECADAATYYCQCHYHGSSYWDNSFGGGTEVVVK
**Q.** Which kon (recombinant human IL-19 [3]) does the source give for B4 here?
**A.** 391000 M⁻¹ s⁻¹

**Q.** And the “Binning Group” value (recombinant human IL-19 [4])?
**A.** 3

B5: R_1: rabbit-derived IL-19 antibody; LCVR SEQ ID NO: 34, HCVR SEQ ID NO: 38 (antibody, V domains shown)
VH: QQLEESGGGLVQPEGSLTLTCTASGFSFSSSYWICWVRQAPGKGLEWLACIDTGVSGDTYYANWAEGRFTISKTSSTTVTLQMTSLTAADTATYFCARDIFGSAIDNSLWGPGTLVTVSS
VL: AIDMTQTPASVSEPVGGTVTIKCQASQSISSYLAWYQQKPGQPPKLLIYSASTLASGVPSRFRGSGSGREFTLTISDLECADAATYYCQCHYHGSSYWDNSFGGGTEVVVK
**Q.** How did the kon (recombinant human IL-19 [3]) turn out when B5 was run?
**A.** 33300 M⁻¹ s⁻¹

**Q.** And the “Binning Group” value (recombinant human IL-19 [4])?
**A.** 3

B6: R_2: rabbit-derived IL-19 antibody; LCVR SEQ ID NO: 42, HCVR SEQ ID NO: 46 (antibody, V domains shown)
VH: B5 VH with E66K
VL: B4 VL with S10A, Q28E, S32N, S33A, R44P, G51D, T54K, E71Q
**Q.** B6 was tested. Which kon (recombinant human IL-19 [3]) did it give?
**A.** 428000 M⁻¹ s⁻¹

**Q.** What about the “Binning Group” value (recombinant human IL-19 [4]) of the same molecule?
**A.** 3

B7: R_4: rabbit-derived IL-19 antibody; LCVR SEQ ID NO: 58, HCVR SEQ ID NO: 62 (antibody, V domains shown)
VH: QCQSVEESGGRLVTPGTPLTLTCTVSGIDLSIYAMGWVRQAPGKGLEYIGIIDTTGTAYYARWAKGRFTISKTSATVALKITSPTTEDTATYFCARDSGSLYYGSYALWGPGTLVTVSS
VL: ADVVMTQTPSSVSEPVGGTVTIKCQASQSIYSYLSWYQQKPGQPPKLLIYEASKLASGVPSRFKGSGSGTQFTLTISGVECADAATYYCQQGYSSSNVDNTFGGGTEVVVT
**Q.** With B7 as the molecule, how does the kon (recombinant human IL-19 [3]) read?
**A.** 152000 M⁻¹ s⁻¹

**Q.** And the “Binning Group” value (recombinant human IL-19 [4])?
**A.** 4
